Measurements: the supplement of paper PMC10567573
± gives the standard deviation.

Assay: protein stability index of a GFP-peptide fusion (GPS, HEK-293T) (PSI 1-6); higher = more stable
[1] = treatment: DMSO, c terminus: a fixed tail appended
[2] = treatment: MLN4924 1 uM, 8 h, c terminus: a fixed tail appended
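Further: 24-mer peptide tiles fused after GFP, lentivirally expressed, FACS-sorted into six equal bins by GFP/DsRed ratio, decoded by Illumina sequencing, PSI is the read-weighted mean bin number.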

Sequence | protein stability index [1] | protein stability index [2] | protein stability index (treatment: DMSO, c terminus: native) | protein stability index (treatment: MLN4924 1 uM, 8 h, c terminus: native)
HYPFLGAMGDHSKKKPGTAMCVGC [ISL2] | 2.86 ± 0.34 | 3.25 ± 0.43 | – | –
HYSLLTSQPLDREATSHYIIELLA [PCDHGC5] | 2.36 ± 0.13 | 2.63 ± 0.32 | – | –
IAERLGCTLPQLAIAWCLRNEGVS [KCNAB2] | 2.88 ± 0.44 | 2.71 ± 0.66 | – | –
IAIPEWFLSENATVAAETRAVIAW [CPXM2] | 2.24 ± 0.25 | 2.08 ± 0.14 | – | –
IAVLGIVMLKRIHSLYRRTGASFQ [SCAMP3] | 2.34 ± 0.53 | 2.25 ± 0.18 | – | –
IAWIKDKLLHIYYQNSIDDRLLVE [PDS5B] | 2.82 ± 0.36 | 2.43 ± 0.44 | – | –
IEGLKEELAYLRKNHEEEMLALRG [KRT16] | 3.79 ± 0.35 | 3.77 ± 0.32 | – | –
IEITFSYWDGSGHRRTVKMRKGNT [FAM50A] | 2.27 ± 0.25 | 2.19 ± 0.18 | – | –
IGTQGPLENTYRDFWLMVWEQKVL [PTPN9] | 2.31 ± 0.24 | 1.79 ± 0.29 | – | –
IHAELSKLVKKHAAQRSTETALYR [FKBP8] | 2.94 ± 0.31 | 2.69 ± 0.44 | – | –
IHHLVLTASDGGDPLRSGTVLVSV [PCDHGA10] | 2.97 ± 0.45 | 2.79 ± 0.34 | – | –
IIHETAVGMNFLHCMAPPLLHLDL [RIPK4] | 2.6 ± 0.64 | 2.57 ± 0.85 | – | –
IIIYLGPMVLMIIVMCVQIKCFHE [CDS2] | 3.13 ± 0.53 | 3.19 ± 0.24 | – | –
IKCETSPPSSPRTLRLEKLGHPAL [PPFIA4] | 3.48 ± 0.35 | 3.56 ± 0.22 | – | –
IKEIDEHAPGVPKILVGNRLHLAF [RAB40B] | 1.93 ± 0.33 | 2.19 ± 0.36 | – | –
IKQLRSGGTPIRGALQIEQSEESD [PTPRD] | 4.98 ± 0.36 | 5.15 ± 0.21 | – | –
ILEFAEKEGMVSSGQNLLAVESQ [PTPN9] | – | – | 2.96 ± 0.65 | 3.03 ± 0.37
INSGYETRRKKGKKDKDISKEKDT [KMT2E] | 4.59 ± 0.13 | 4.78 ± 0.16 | – | –
IPSTQFDAAHPTNVQRLAEPSQML [CTNNB1] | 4.24 ± 0.18 | 4.34 ± 0.09 | – | –
IQDKLFQVAKREREAATKHSKASL [CHCHD6] | 3.86 ± 0.47 | 4.14 ± 0.22 | – | –
IQFIKLFGMAKIDNLLQEMLLGGS [HNF4A] | 2.84 ± 0.72 | 3.11 ± 0.61 | – | –
IQYNRRQLLILLQNCTDEGEREAI [POP5] | 2.74 ± 0.3 | 2.78 ± 0.51 | – | –

Sequence | protein stability index [1] | protein stability index [2] | protein stability index (treatment: DMSO, c terminus: native) | protein stability index (treatment: MLN4924 1 uM, 8 h, c terminus: native)
ISIPITGDTLRTFSLVLVLDLSKP [DYNC2LI1] | 2.69 ± 0.62 | 2.865 ± 0.02 | – | –
ISWAFTDRPDLSLTVLPKLQARER [C2CD2L] | 2.68 ± 0.28 | 2.71 ± 0.43 | – | –
ITLLILAELLIFSVPIVYEKYKTQ [RTN3] | 3.41 ± 0.32 | 3.4 ± 0.94 | – | –
ITWFKDFLPVDTSNNNGRIKQLRS [PTPRD] | 2.47 ± 0.52 | 2.96 ± 0.3 | – | –
IVTWFMLLYAQGLLAIQFLEFFYG [SLC19A2] | 3.28 ± 0.52 | 3.18 ± 0.46 | – | –
IYQTLFLNGENSDIKICALGEEWS [GMCL1] | 2.26 ± 0.18 | 2.16 ± 0.19 | – | –
KAKRNRTCRPPSSSESSSDSDNSG [ANKRD17] | 5.64 ± 0.27 | 5.43 ± 0.2 | – | –
KALQEENRDLRKASVTIQARAEQE [CCDC6] | 5.32 ± 0.2 | 5.32 ± 0.091 | – | –
KAMNMRYSDRTNIISKPVPQTLIM [FEM1C] | 2.09 ± 0.14 | 2.38 ± 0.5 | – | –
KAVKYQSKARRKKIMIIICCVILG [STX1A] | 2.18 ± 0.8 | 2.25 ± 0.43 | – | –
KCHLWTAMDLGFFVVMGVIGGLLG [CLCN6] | 3.14 ± 0.38 | 3 ± 0.24 | – | –
KDEDLDLFPASPTREAHRESSVPV [FBF1] | 5.11 ± 0.33 | 5.02 ± 0.35 | – | –
KDIDMFSMCEHHLVPFVGKVHIGY [GCH1] | 2.34 ± 0.76 | 2.27 ± 0.36 | – | –
KEDIDLIDILWRQDIDLGAGREVF [NFE2L1] | 2.75 ± 0.57 | 3.47 ± 0.88 | – | –
KEDQAWDGASQDCPPLPAGVSFHI [FBXO34] | 3.58 ± 0.33 | 3.46 ± 0.31 | – | –
KEEEEKDHNEAMKPEEPPQNLLRE [PCMTD1] | 5.39 ± 0.77 | 5.88 ± 0.09 | – | –
KEERKTEVVMNSQQTPVGTPKDKR [PALM] | 5.43 ± 0.32 | 5.36 ± 0.32 | – | –
KEPAEFNGDGAFLHDNHEQMPTEI [ZNF649] | 5.11 ± 0.25 | 5.16 ± 0.26 | – | –
KESLCISITVSKVDKDQPSILNSC [FBXO34] | 2.28 ± 0.33 | 2.09 ± 0.28 | – | –
KFDVLRAIELFHSYRETRRKEGIV [PTPN9] | 2.35 ± 0.079 | 1.91 ± 0.42 | – | –
KFFFKSMDDDFGVVKEEISDDNAK [DVL3] | 4.76 ± 0.19 | 4.81 ± 0.099 | – | –
KGEEVTPISAIRHEGKTDSERTDT [EPB41L3] | 5.44 ± 0.45 | 5.43 ± 0.3 | – | –

Sequence | protein stability index [1] | protein stability index [2] | protein stability index (treatment: DMSO, c terminus: native) | protein stability index (treatment: MLN4924 1 uM, 8 h, c terminus: native)
KGNTTLQQLDLRWNNVGLLGGRAL [LRRC45] | 2.68 ± 0.034 | 2.73 ± 0.26 | – | –
KGVDFQKFCMNGAALCALGKDCFL [ETS1] | 2.62 ± 0.4 | 2.09 ± 0.28 | – | –
KHVEYEVSSQRFKSSVYRRYNDFV [SNX8] | 2.35 ± 0.3 | 2.8 ± 0.39 | – | –
KIVEFNPMVLKGKIRPDSSRPELL [GLT8D2] | 3.09 ± 0.36 | 3.35 ± 0.39 | – | –
KKDILLVNDHLLNFVRERTLDKRW [PDS5B] | 2.13 ± 0.26 | 2.35 ± 0.18 | – | –
KKINTEGDVPPSMSGSCAVCVDRV [KLHDC2] | 4.18 ± 0.34 | 4.29 ± 0.17 | – | –
KKTHETLSHAGQKATAAFSNVGTA [TPD52L1] | 4.44 ± 0.28 | 4.34 ± 0.21 | – | –
KLAEAYLNLGPALSAALASSQKQH [C8orf76] | 2.68 ± 0.69 | 2.82 ± 0.97 | – | –
KLGLHDNHWVPACHSFNRAIHKKA [FBXO34] | 2.79 ± 0.14 | 2.91 ± 0.18 | – | –
KLIATSNKPAVKLLYNRSNNKYSY [KCTD10] | 2.23 ± 0.14 | 2.49 ± 0.23 | – | –
KLVKKHAAQRSTETALYRKMLGNP [FKBP8] | 2.95 ± 0.47 | 3.04 ± 0.25 | – | –
KNKKSSTGEASENGLEDIDRILER [TCF25] | 5.22 ± 0.48 | 5.49 ± 0.18 | – | –
KNKPKMNYEKLSRGLRYYYDKNII [ETS1] | 2.71 ± 1.1 | 2.17 ± 0.28 | – | –
KPLYPDDYVHISSKPCDLHCTTVD [ADAMTSL2] | 4.29 ± 0.35 | 4.21 ± 0.36 | – | –
KPVLAKDSSNPYPNFNFNISHQGD [AASDHPPT] | 4.22 ± 0.22 | 4.01 ± 0.18 | – | –
KRFEKQLTQIDGTLSTIEFQREAL [CHMP4C] | 3.98 ± 0.17 | 4 ± 0.27 | – | –
KRNFISSKSKQPAGHRRPAGGIRE [C22orf31] | 4.07 ± 0.11 | 3.99 ± 0.22 | – | –
KRQVPREQAQAYAERLGVTFFEVS [RAB40A] | 3.11 ± 0.17 | 3.21 ± 0.31 | – | –
KSENARLVVQIDNAKLAADDFRTK [KRT33B] | 4.4 ± 0.41 | 4.25 ± 0.27 | – | –
KSESSLPHQTSKMENLPGLASGPG | 4.87 ± 0.29 | 4.43 ± 0.33 | – | –
KTKTSEYPIIFVYYLRKGKKINSN [SPANXN3] | 2.37 ± 0.59 | 2.01 ± 0.49 | – | –
